Laboratory results published in patent US20180030151A1.
Like-named read-outs stand apart in the source and are kept apart here.

How the values were obtained:
[1] = target: recombinant human TFPI (tissue factor pathway inhibitor) (human) (UniProt P10646); experiment: cell-based or functional assay
[2] = target: recombinant human TFPI (tissue factor pathway inhibitor) (human) (UniProt P10646)
[3] = target: recombinant human TFPI (tissue factor pathway inhibitor) (human) (UniProt P10646); experiment: cell-based or functional assay; remark: listed apart in the source
[4] = target: recombinant human TFPI (tissue factor pathway inhibitor) (human) (UniProt P10646); remark: listed apart in the source
[5] = target: recombinant human TFPI (tissue factor pathway inhibitor) (human) (UniProt P10646); remark: listed apart in the source
[6] = target: recombinant human TFPI (tissue factor pathway inhibitor) (human) (UniProt P10646); experiment: cell-based or functional assay; remark: listed apart in the source
[7] = target: recombinant human TFPI (tissue factor pathway inhibitor) (human) (UniProt P10646); remark: listed apart in the source

B1: mAb2021 (anti-TFPI Ab, Novo Nordisk) (antibody, from another filing, V domains shown)
VH: EVQLVESGGGLVKPGGSLRLSCAASGFTFSNYAMSWVRQTPEKRLEWVATISRSGSYSYFPDSVQGRFTISRDNAKNSLYLQMNSLRAEDTAVYYCARLGGYDEGDAMDSWGQGTTVTVSS
VL: DIVMTQTPLSLSVTPGQPASISCKSSQSLLESDGKTYLNWYLQKPGQSPQLLIYLVSILDSGVPDRFSGSGSGTDFTLKISRVEAEDVGVYYCLQATHFPQTFGGGTKVEIKR
[1]
  % of Normalized, TF/FVIIa/FX complex assay (FX 5 nM), Ab 1.56 nM: 5.3%
  % of Normalized, TF/FVIIa/FX complex assay (FX 5 nM), Ab 3.13 nM: 5.7%
  % of Normalized, TF/FVIIa/FX complex assay (FX 5 nM), Ab 6.25 nM: 6.1%
  % of Normalized, TF/FVIIa/FX complex assay (FX 5 nM), Ab 12.5 nM: 10.1%
  % of Normalized, TF/FVIIa/FX complex assay (FX 5 nM), Ab 25 nM: 42.5%
  % of Normalized, TF/FVIIa/FX complex assay (FX 5 nM), Ab 50 nM: 90.6%
  % of Normalized, TF/FVIIa/FX complex assay (FX 5 nM), Ab 100 nM: 99.4%
  % of Normalized, TF/FVIIa/FX complex assay, Ab 1.56 nM: 13.6%
  % of Normalized, TF/FVIIa/FX complex assay, Ab 3.13 nM: 15.7%
  % of Normalized, TF/FVIIa/FX complex assay, Ab 6.25 nM: 18.2%
  % of Normalized, TF/FVIIa/FX complex assay, Ab 12.5 nM: 23.7%
  % of Normalized, TF/FVIIa/FX complex assay, Ab 25 nM: 100%
  % of Normalized, TF/FVIIa/FX complex assay, Ab 50 nM: 101%
  % of Normalized, TF/FVIIa/FX complex assay, Ab 100 nM: 102%
  A405, TF/FVIIa/FX complex assay (FX 5 nM), Ab 1.56 nM: 0.043
  A405, TF/FVIIa/FX complex assay (FX 5 nM), Ab 3.13 nM: 0.047
  A405, TF/FVIIa/FX complex assay (FX 5 nM), Ab 6.25 nM: 0.05
  A405, TF/FVIIa/FX complex assay (FX 5 nM), Ab 12.5 nM: 0.082
  A405, TF/FVIIa/FX complex assay (FX 5 nM), Ab 25 nM: 0.344
  A405, TF/FVIIa/FX complex assay (FX 5 nM), Ab 50 nM: 0.733
  A405, TF/FVIIa/FX complex assay (FX 5 nM), Ab 100 nM: 0.805
  A405, TF/FVIIa/FX complex assay, Ab 1.56 nM: 0.125
  A405, TF/FVIIa/FX complex assay, Ab 3.13 nM: 0.145
  A405, TF/FVIIa/FX complex assay, Ab 6.25 nM: 0.168
  A405, TF/FVIIa/FX complex assay, Ab 12.5 nM: 0.218
  A405, TF/FVIIa/FX complex assay, Ab 25 nM: 0.918
  A405, TF/FVIIa/FX complex assay, Ab 50 nM: 0.929
  A405, TF/FVIIa/FX complex assay, Ab 100 nM: 0.937
[2]
  FXa assay % of FXa alone, 2.5 nM Ab, 10 nM TFPI: 6.2%
  FXa assay % of FXa alone, 5 nM Ab, 10 nM TFPI: 16.4%
  FXa assay % of FXa alone, 10 nM Ab, 10 nM TFPI: 87.5%
  FXa assay % of FXa alone, 20 nM Ab, 10 nM TFPI: 84.6%
  FXa assay OD, 2.5 nM Ab, 10 nM TFPI: 0.0475
  FXa assay OD, 5 nM Ab, 10 nM TFPI: 0.125
  FXa assay OD, 20 nM Ab, 10 nM TFPI: 0.644
[3]
  A405, TF/FVIIa/FX complex assay, Ab 1.56 nM: 0.137
  A405, TF/FVIIa/FX complex assay, Ab 3.13 nM: 0.143
  A405, TF/FVIIa/FX complex assay, Ab 6.25 nM: 0.156
  A405, TF/FVIIa/FX complex assay, Ab 12.5 nM: 0.241
  A405, TF/FVIIa/FX complex assay, Ab 25 nM: 0.932
  A405, TF/FVIIa/FX complex assay, Ab 50 nM: 0.953
  A405, TF/FVIIa/FX complex assay, Ab 100 nM: 0.952
[4]
  FXa assay % of FXa alone, 2.5 nM Ab, 10 nM TFPI: 9.2%
  FXa assay % of FXa alone, 5 nM Ab, 10 nM TFPI: 87%
  FXa assay % of FXa alone, 10 nM Ab, 10 nM TFPI: 95.7%
  FXa assay % of FXa alone, 20 nM Ab, 10 nM TFPI: 98.3%
  FXa assay OD, 2.5 nM Ab, 10 nM TFPI: 0.0745
  FXa assay OD, 5 nM Ab, 10 nM TFPI: 0.702
  FXa assay OD, 10 nM Ab, 10 nM TFPI: 0.772
  FXa assay OD, 20 nM Ab, 10 nM TFPI: 0.793
[5]
  FXa assay % of FXa alone, 2.5 nM Ab, 10 nM TFPI: 8.4%
  FXa assay % of FXa alone, 5 nM Ab, 10 nM TFPI: 21%
  FXa assay % of FXa alone, 10 nM Ab, 10 nM TFPI: 90.7%
  FXa assay % of FXa alone, 20 nM Ab, 10 nM TFPI: 95.2%
  FXa assay OD, 2.5 nM Ab, 10 nM TFPI: 0.101
  FXa assay OD, 5 nM Ab, 10 nM TFPI: 0.249
  FXa assay OD, 10 nM Ab, 10 nM TFPI: 1.08
  FXa assay OD, 20 nM Ab, 10 nM TFPI: 1.13
[6]
  % of Normalized, TF/FVIIa/FX complex assay, Ab 1.56 nM: 15%
  % of Normalized, TF/FVIIa/FX complex assay, Ab 3.13 nM: 15.6%
  % of Normalized, TF/FVIIa/FX complex assay, Ab 6.25 nM: 17%
  % of Normalized, TF/FVIIa/FX complex assay, Ab 12.5 nM: 26.3%
  % of Normalized, TF/FVIIa/FX complex assay, Ab 25 nM: 102%
  % of Normalized, TF/FVIIa/FX complex assay, Ab 50 nM: 104%
  % of Normalized, TF/FVIIa/FX complex assay, Ab 100 nM: 104%
[7]
  FXa assay % of FXa alone, 2.5 nM Ab, 10 nM TFPI: 6.6%
  FXa assay % of FXa alone, 5 nM Ab, 10 nM TFPI: 35%
  FXa assay % of FXa alone, 10 nM Ab, 10 nM TFPI: 98.5%
  FXa assay % of FXa alone, 20 nM Ab, 10 nM TFPI: 85.8%
  FXa assay OD, 2.5 nM Ab, 10 nM TFPI: 0.032
